Some targets named below: MAPK2(h) (human (printed as (h)), UniProt P28482 1-360); PRKCB2 (PKC beta II) (human (printed as (h)), UniProt P05771-2 1-673); PKA(h) (human (printed as (h)), UniProt P17612 1-351); IR (h) (human (printed as (h)), UniProt P06213 1005-1310, limits assumed); MAPK1(h) (human (printed as (h)), UniProt P28482 1-360, limits assumed); AKT2 (PKB beta) (human (printed as (h)), UniProt P31751 1-481, limits assumed); MAP2K1 (MEK1) (UniProt Q02750 1-393, limits assumed).

What all share (assay): cell-based or functional assay
The target in experiment [1] is RPS6KB1 (p70S6K) Ribosomal protein S6 kinase, 70 kDa, polypeptide 1 (human (printed as (h)), UniProt P23443 1-421, limits assumed).
RPS6KB1 (p70S6K) Ribosomal protein S6 kinase, 70 kDa, polypeptide 1 (human (printed as (h)), UniProt P23443 1-421, limits assumed), sequence (P23443 1-421 limits assumed): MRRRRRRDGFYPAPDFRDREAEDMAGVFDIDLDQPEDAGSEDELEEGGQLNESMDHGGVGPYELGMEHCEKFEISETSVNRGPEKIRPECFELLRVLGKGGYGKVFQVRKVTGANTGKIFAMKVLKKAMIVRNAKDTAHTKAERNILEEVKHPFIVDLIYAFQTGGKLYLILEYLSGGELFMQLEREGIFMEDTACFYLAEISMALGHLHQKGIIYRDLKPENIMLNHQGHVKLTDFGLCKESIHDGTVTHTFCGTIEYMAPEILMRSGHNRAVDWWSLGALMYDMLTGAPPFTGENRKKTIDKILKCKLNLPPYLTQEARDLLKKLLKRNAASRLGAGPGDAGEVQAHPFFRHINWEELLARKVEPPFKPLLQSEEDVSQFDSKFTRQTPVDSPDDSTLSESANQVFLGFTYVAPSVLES
Experiment [2] has as its target MAPKAPK2 Mitogen-activated protein kinase-activated protein kinase 2 (UniProt P49137 1-400, limits assumed).
Experiment [3] has as its target RPS6KA1 (RSK1) Ribosomal protein S6 kinase, 90 kDa, polypeptide 1 (UniProt Q15418 1-735, limits assumed).
Another experiment has as its target T1, MATK (HYL) (UniProt P42679 1-507, limits assumed).
T1 sequence (looked up): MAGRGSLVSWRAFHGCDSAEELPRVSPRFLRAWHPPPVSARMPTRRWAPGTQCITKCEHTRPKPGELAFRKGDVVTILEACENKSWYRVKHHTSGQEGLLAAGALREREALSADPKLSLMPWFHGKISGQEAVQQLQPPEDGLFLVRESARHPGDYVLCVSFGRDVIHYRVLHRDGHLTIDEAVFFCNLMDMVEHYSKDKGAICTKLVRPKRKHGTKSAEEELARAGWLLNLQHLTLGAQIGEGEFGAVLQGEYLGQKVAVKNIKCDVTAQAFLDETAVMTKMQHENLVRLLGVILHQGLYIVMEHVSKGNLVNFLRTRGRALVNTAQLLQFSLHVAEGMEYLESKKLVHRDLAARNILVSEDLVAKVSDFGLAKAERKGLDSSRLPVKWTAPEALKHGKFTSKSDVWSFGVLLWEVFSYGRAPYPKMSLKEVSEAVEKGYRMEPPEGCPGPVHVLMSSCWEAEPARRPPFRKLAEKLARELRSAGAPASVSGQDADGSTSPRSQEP

Experiment [4] concerns the target T2, PRKD2 (PKD2) Protein kinase D2 (UniProt Q9BZL6 1-878, limits assumed).
T2 sequence (looked up): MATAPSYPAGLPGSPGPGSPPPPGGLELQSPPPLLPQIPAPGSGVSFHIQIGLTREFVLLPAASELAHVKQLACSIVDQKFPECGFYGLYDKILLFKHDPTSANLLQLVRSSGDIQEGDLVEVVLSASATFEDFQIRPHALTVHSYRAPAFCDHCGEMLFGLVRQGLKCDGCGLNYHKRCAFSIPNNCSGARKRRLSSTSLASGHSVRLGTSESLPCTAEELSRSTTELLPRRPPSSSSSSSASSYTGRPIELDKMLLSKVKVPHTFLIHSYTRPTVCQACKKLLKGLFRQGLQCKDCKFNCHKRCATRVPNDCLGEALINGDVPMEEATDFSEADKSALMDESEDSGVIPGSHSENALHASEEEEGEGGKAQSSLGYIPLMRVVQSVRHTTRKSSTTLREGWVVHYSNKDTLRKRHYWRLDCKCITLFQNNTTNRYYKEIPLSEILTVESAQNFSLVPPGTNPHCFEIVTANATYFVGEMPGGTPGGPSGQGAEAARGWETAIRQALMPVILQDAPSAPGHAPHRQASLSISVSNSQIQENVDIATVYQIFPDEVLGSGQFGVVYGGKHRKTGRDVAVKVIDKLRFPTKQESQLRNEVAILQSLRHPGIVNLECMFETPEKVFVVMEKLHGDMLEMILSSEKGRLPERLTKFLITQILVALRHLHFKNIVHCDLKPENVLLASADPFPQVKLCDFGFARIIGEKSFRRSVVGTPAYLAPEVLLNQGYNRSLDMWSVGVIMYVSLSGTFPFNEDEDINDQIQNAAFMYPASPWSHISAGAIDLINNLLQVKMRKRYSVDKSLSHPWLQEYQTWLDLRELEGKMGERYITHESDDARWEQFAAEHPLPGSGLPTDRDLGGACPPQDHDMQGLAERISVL

AKT2 (PKB beta) (human (printed as (h)), UniProt P31751 1-481, limits assumed), sequence (P31751 whole entry): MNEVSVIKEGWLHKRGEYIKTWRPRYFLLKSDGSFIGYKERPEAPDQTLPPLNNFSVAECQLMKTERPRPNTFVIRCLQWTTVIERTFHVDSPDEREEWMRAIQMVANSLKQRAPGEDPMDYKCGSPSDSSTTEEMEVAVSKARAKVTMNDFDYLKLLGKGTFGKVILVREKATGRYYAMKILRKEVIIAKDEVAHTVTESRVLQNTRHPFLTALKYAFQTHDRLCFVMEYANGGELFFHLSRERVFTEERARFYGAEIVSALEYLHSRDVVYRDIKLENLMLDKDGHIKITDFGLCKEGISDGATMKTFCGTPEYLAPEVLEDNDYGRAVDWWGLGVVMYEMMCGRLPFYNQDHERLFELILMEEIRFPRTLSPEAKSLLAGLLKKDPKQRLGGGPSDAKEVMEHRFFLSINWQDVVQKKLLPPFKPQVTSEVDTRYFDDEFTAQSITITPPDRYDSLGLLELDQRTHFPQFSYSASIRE
PRKCB2 (PKC beta II) (human (printed as (h)), UniProt P05771-2 1-673), sequence (P05771 other isoform, or with tags, fused parts or gaps limits assumed): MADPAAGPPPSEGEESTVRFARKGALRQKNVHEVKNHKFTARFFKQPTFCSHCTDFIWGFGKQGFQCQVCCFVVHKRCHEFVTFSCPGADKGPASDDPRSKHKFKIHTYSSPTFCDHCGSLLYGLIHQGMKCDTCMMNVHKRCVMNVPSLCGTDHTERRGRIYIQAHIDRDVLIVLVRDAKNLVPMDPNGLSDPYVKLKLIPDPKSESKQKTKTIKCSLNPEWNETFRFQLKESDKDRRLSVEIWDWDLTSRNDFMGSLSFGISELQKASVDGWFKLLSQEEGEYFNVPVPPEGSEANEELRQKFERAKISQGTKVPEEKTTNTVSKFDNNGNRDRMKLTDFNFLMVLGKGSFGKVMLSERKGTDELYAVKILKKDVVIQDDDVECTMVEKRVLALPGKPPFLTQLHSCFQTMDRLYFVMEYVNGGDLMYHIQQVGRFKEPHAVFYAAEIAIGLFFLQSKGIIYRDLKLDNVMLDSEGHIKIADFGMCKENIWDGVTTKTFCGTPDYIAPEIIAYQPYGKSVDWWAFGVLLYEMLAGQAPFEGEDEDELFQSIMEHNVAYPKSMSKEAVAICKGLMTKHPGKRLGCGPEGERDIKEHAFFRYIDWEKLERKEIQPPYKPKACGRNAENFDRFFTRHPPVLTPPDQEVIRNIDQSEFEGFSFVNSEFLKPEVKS
IR (h) (human (printed as (h)), UniProt P06213 1005-1310, limits assumed), sequence (P06213 1005-1310 limits assumed): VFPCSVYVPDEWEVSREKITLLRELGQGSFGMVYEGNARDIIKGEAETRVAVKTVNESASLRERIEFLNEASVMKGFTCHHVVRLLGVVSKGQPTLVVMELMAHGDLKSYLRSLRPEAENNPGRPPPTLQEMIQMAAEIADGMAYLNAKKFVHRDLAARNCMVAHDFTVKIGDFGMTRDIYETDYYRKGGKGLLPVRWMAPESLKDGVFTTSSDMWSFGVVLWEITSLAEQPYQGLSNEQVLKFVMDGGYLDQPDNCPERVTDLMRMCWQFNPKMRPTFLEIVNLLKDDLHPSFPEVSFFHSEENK
MAPK2(h) (human (printed as (h)), UniProt P28482 1-360), sequence (P28482 whole entry): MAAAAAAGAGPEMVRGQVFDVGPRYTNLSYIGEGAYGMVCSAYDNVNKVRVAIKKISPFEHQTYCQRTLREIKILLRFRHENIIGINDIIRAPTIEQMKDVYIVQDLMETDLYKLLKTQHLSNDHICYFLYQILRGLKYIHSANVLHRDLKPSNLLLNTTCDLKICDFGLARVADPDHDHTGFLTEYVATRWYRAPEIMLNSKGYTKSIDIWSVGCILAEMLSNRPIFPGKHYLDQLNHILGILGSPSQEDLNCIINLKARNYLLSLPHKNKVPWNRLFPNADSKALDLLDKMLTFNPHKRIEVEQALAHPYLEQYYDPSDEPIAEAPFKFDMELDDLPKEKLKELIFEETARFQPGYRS
MAPK1(h) (human (printed as (h)), UniProt P28482 1-360, limits assumed), sequence (P28482 whole entry): as above
RPS6KA1 (RSK1) Ribosomal protein S6 kinase, 90 kDa, polypeptide 1, sequence (Q15418 whole entry): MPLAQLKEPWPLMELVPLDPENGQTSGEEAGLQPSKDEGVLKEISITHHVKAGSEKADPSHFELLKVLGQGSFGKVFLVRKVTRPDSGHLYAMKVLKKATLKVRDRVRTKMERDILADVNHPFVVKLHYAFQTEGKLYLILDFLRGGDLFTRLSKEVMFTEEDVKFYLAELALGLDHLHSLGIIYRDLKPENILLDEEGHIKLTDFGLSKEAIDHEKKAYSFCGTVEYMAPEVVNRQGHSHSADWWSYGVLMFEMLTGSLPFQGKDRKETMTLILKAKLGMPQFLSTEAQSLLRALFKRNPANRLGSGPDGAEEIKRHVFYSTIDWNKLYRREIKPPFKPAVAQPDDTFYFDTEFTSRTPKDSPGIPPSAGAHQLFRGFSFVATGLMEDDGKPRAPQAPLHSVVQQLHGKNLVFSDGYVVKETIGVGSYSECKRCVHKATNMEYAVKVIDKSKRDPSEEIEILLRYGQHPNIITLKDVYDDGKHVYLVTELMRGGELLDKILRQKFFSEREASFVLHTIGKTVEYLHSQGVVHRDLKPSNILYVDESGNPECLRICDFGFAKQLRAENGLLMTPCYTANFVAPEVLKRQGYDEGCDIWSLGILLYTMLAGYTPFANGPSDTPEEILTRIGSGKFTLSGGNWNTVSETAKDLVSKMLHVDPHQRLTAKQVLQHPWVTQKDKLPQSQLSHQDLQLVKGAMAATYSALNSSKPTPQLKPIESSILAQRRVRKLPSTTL
MAPKAPK2 Mitogen-activated protein kinase-activated protein kinase 2, sequence (P49137 whole entry): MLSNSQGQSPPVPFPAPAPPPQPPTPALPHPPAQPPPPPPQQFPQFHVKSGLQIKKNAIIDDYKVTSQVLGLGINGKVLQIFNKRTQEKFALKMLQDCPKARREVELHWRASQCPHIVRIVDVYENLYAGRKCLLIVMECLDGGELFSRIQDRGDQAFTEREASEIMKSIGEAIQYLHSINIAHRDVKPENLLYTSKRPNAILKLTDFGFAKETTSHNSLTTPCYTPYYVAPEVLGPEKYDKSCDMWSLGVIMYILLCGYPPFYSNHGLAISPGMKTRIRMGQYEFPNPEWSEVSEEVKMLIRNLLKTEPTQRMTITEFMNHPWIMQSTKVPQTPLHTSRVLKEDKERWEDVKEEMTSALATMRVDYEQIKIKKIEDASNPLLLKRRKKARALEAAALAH

As for SGRPPMIVWFNRPFLIAVSHTHGQTILFMAKVINPVGA [D3 peptide], the “D3 at 0.1 µM % activity” value with MAPK2(h) came to 96%; with PRKCB2 (PKC beta II), 101%; with PKA(h), 115%; in experiment [1], 73%; with IR (h) it was 96%; with MAPK1(h), 86%. Further, in the experiment with AKT2 (PKB beta), the “D3 at 0.1 µM % activity” value was determined as 63%. The “D3 at 1 µm % activity” value with MAPK2(h) came out at 96%; in the experiment with PRKCB2 (PKC beta II), 103%; with PKA(h), 105%; in [1], 22%; in the experiment with IR (h) it was 103%; with MAPK1(h) it was 92%. The “D3 at 1 µm % activity” value with AKT2 (PKB beta) is 12%. The entries for the “IC50” value (in experiment [1]; with AKT2 (PKB beta)) were 373 nM and 448 nM, respectively. Further, the “% Inhibition mean” value in experiment [2] was 58%; with MAP2K1 (MEK1), 94%; in [3], 98.3%; with MATK (HYL), 55.6%; in [4], 92.5%.

The record behind these values is patent US20100184658A1 (published 2010).
